Biological target: T1, Human HER2 antigen (Sino Biological Inc., catalog number 10004-H08H) (human, UniProt P04626 23-652)
T1 construct: Bought antigen coated on the ELISA plate
Test: ELISA on coated human HER2 antigen, anti-human IgG Fc-HRP detection
Procedure: Human HER2 antigen (purchased from Sino Biological Inc., catalog number: 10004-H08H) was diluted to 1 μg/ml using PBS buffer, and added to an ELISA plate at 100 μl/well to perform coating at 4° C. overnight. The plate was washed with PBST for four times, then 5% BSA (purchased from Amresco, USA, catalog number: 0332-100g, the solution being PBS) was added at 300 μl/well to perform blocking at room temperature for 1 hour. […] Each of the dilutions was added to an ELISA plate at 100 μl/well and incubated at room temperature for 1 hour. The plate was washed with PBST for four times, then HRP-labeled goat anti-human IgG Fc antibody (purchased from CalBiochem Inc., USA, catalog number: AP113A-K) was diluted at 1:10000 with PBS buffer, and added to the ELISA plate at 100 μl/well to perform incubation at room temperature for 1 hour. The plate was washed with PBST for four times, then a solution of 3,3′,5,5′-tetramethylbenzidine substrate (purchased from Tiangen Co., Ltd., catalog number: PA107-01) was added at 100 μl/well to perform incubation at room temperature for 15 minutes for visualization. A stop solution (1 M sulfuric acid) was added at 50 μl/well, and absorbance value was read at 450/630 nm wavelength on an M5 multi-functional ELISA plate (Molecular Devices Inc., USA).

| binding result | Binder |
| --- | --- |
| binds | GB235-019N73D mutated antibody (antibody, human IgG1, kappa, V domains shown, full-length IgG1) VH: EVQLVQSGAEVKKPGAPVKVSCKASGYTFTSYDINWVRQATGQGLEWMGWMNPNSGNTGYAQKFQGRVTMTRDTSISTAYMELSSLRSEDTAVYYCARGYYLSRGDFWGQGTLVTVSS VL: DIQMTQSPSSVSASVGDRVTITCRASQGISSWLAWYQQKPGKAPKLLIYAASSLQSGVPSRFSGSGSGTDFTLTISSLQPEDFATYYCQQANSFPLTFGGGTKVEIKR |
| binds | GB235-019N73Q mutated antibody (antibody, human IgG1, kappa, V domains shown, full-length IgG1) VH: EVQLVQSGAEVKKPGAPVKVSCKASGYTFTSYDINWVRQATGQGLEWMGWMNPNSGNTGYAQKFQGRVTMTRQTSISTAYMELSSLRSEDTAVYYCARGYYLSRGDFWGQGTLVTVSS VL: DIQMTQSPSSVSASVGDRVTITCRASQGISSWLAWYQQKPGKAPKLLIYAASSLQSGVPSRFSGSGSGTDFTLTISSLQPEDFATYYCQQANSFPLTFGGGTKVEIKR |

Continued, binder first:

| Binder | binding result |
| --- | --- |
| GB235-019 recombinant full-length IgG1 isotype antibody (wild type) (antibody, V domains shown, N-linked glycan at Asn73 (Fab framework region 3), Full-length IgG1 expressed in FreeStyle 293F cells; Derived from scFv clone WG1-019; also called GB235-019WT; GB235-019 wild-type antibody) VH: EVQLVQSGAEVKKPGAPVKVSCKASGYTFTSYDINWVRQATGQGLEWMGWMNPNSGNTGYAQKFQGRVTMTRNTSISTAYMELSSLRSEDTAVYYCARGYYLSRGDFWGQGTLVTVSS VL: DIQMTQSPSSVSASVGDRVTITCRASQGISSWLAWYQQKPGKAPKLLIYAASSLQSGVPSRFSGSGSGTDFTLTISSLQPEDFATYYCQQANSFPLTFGGGTKVEIKR | binds |
| GB235-019S75A mutated antibody (antibody, human IgG1, kappa, V domains shown, full-length IgG1; also called GB235-019575A) VH: EVQLVQSGAEVKKPGAPVKVSCKASGYTFTSYDINWVRQATGQGLEWMGWMNPNSGNTGYAQKFQGRVTMTRNTAISTAYMELSSLRSEDTAVYYCARGYYLSRGDFWGQGTLVTVSS VL: DIQMTQSPSSVSASVGDRVTITCRASQGISSWLAWYQQKPGKAPKLLIYAASSLQSGVPSRFSGSGSGTDFTLTISSLQPEDFATYYCQQANSFPLTFGGGTKVEIKR | binds |
